# Reference: the supplement of paper PMC11246515
# ± gives the standard deviation of the averaged measurements.
# Assay: total protein half-life in vivo (active degradation + dilution); higher = more stable protein
# [1] = E. coli NCM3722 delta-clpP delta-lon delta-hslV, growth: N-lim chemostat, doubling time 6 h
# [2] = E. coli NCM3722 delta-clpP, growth: N-lim chemostat, doubling time 6 h
# [3] = E. coli NCM3722 delta-hslV, growth: N-lim chemostat, doubling time 6 h
# [4] = E. coli NCM3722 delta-lon, growth: N-lim chemostat, doubling time 6 h
# [5] = E. coli NCM3722 delta-smpB, growth: N-lim chemostat, doubling time 6 h
# [6] = wild type E. coli NCM3722, growth: C-lim chemostat, doubling time 3 h
# [7] = wild type E. coli NCM3722, growth: C-lim chemostat, doubling time 6 h
# [8] = wild type E. coli NCM3722, growth: C-lim chemostat, doubling time 12 h
# [9] = wild type E. coli NCM3722, growth: N-lim chemostat, doubling time 6 h
# [10] = wild type E. coli NCM3722, growth: N-lim chemostat, doubling time 12 h
# [11] = wild type E. coli NCM3722, growth: P-lim chemostat, doubling time 6 h
# [12] = wild type E. coli NCM3722, growth: P-lim chemostat, doubling time 12 h
sequence,measurement,setting,value
MPVITLPDGSQRHYDHAVSPMDVALDIGPGLAKACIAGRVNGELVDACDLIENDAQLSIITAKDEEGLEIIRHSCAHLLGHAIKQLWPHTKMAIGPVIDNGFYYDVDLDRTLTQEDVEALEKRMHELAEKNYDVIKKKVSWHEARETFANRGESYKVSILDENIAHDDKPGLYFHEEYVDMCRGPHVPNMRFCHHFKLMKTAGAYWRGDSNNKMLQRIYGTAWADKKALNAYLQRLEEAAKRDHRKIGKQLDLYHMQEEAPGMVFWHNDGWTIFRELEVFVRSKLKEYQYQEVKGPFMMDRVLWEKTGHWDNYKDAMFTTSSENREYCIKPMNCPGHVQIFNQGLKSYRDLPLRMAEFGSCHRNEPSGSLHGLMRVRGFTQDDAHIFCTEEQIRDEVNGCIRLVYDMYSTFGFEKIVVKLSTRPEKRIGSDEMWDRAEADLAVALEENNIPFEYQLGEGAFYGPKIEFTLYDCLDRAWQCGTVQLDFSLPSRLSASYVGEDNERKVPVMIHRAILGSMERFIGILTEEFAGFFPTWLAPVQVVIMNITDSQSEYVNELTQKLSNAGIRVKADLRNEKIGFKIREHTLRRVPYMLVCGDKEVESGKVAVRTRRGKDLGSMDVNEVIEKLQQEIRSRSLKQLEE [P0A8M3],total protein half-life in vivo,[1],5.73 ± 0.81 h
same,total protein half-life in vivo,[2],5.78 ± 1.1 h
same,total protein half-life in vivo,[3],5.411 ± 0.034 h
same,total protein half-life in vivo,[4],6.36 ± 0.29 h
same,total protein half-life in vivo,[5],5.34 ± 0.06 h
same,total protein half-life in vivo,[6],3.18 ± 0.052 h
same,total protein half-life in vivo,[7],6.43 ± 0.58 h
same,total protein half-life in vivo,[8],11.3 ± 0.88 h
same,total protein half-life in vivo,[9],5.35 ± 0.11 h
same,total protein half-life in vivo,[10],9.648 ± 0.077 h
same,total protein half-life in vivo,[11],5.99 ± 0.14 h
same,total protein half-life in vivo,[12],13.3 ± 0.97 h
MPYDSVYSEKRPPGTLRTAWRKFYSDASAMVGLYGCAGLAVLCIFGGWFAPYGIDQQFLGYQLLPPSWSRYGEVSFFLGTDDLGRDVLSRLLSGAAPTVGGAFVVTLAATICGLVLGTFAGATHGLRSAVLNHILDTLLAIPSLLLAIIVVAFAGPSLSHAMFAVWLALLPRMVRSIYSMVHDELEKEYVIAARLDGASTLNILWFAVMPNITAGLVTEITRALSMAILDIAALGFLDLGAQLPSPEWGAMLGDALELIYVAPWTVMLPGAAIMISVLLVNLLGDGVRRAIIAGVE [P0AGH5],total protein half-life in vivo,[1],6.49 h
same,total protein half-life in vivo,[2],6.66 h
same,total protein half-life in vivo,[6],3.28 ± 0.12 h
same,total protein half-life in vivo,[8],11.5 h
same,total protein half-life in vivo,[9],6.2 ± 0.26 h
same,total protein half-life in vivo,[10],12.8 h
same,total protein half-life in vivo,[11],5.92 h
same,total protein half-life in vivo,[12],13.7 h
MPYLLEMKNITKTFGSVKAIDNVCLRLNAGEIVSLCGENGSGKSTLMKVLCGIYPHGSYEGEIIFAGEEIQASHIRDTERKGIAIIHQELALVKELTVLENIFLGNEITHNGIMDYDLMTLRCQKLLAQVSLSISPDTRVGDLGLGQQQLVEIAKALNKQVRLLILDEPTASLTEQETSILLDIIRDLQQHGIACIYISHKLNEVKAISDTICVIRDGQHIGTRDAAGMSEDDIITMMVGRELTALYPNEPHTTGDEILRIEHLTAWHPVNRHIKRVNDVSFSLKRGEILGIAGLVGAGRTETIQCLFGVWPGQWEGKIYIDGKQVDIRNCQQAIAQGIAMVPEDRKRDGIVPVMAVGKNITLAALNKFTGGISQLDDAAEQKCILESIQQLKVKTSSPDLAIGRLSGGNQQKAILARCLLLNPRILILDEPTRGIDIGAKYEIYKLINQLVQQGIAVIVISSELPEVLGLSDRVLVMHEGKLKANLINHNLTQEQVMEAALRSEHHVEKQSV,total protein half-life in vivo,[6],2.9 ± 0.53 h
same,total protein half-life in vivo,[8],7.37 ± 2.8 h
same,total protein half-life in vivo,[12],9.14 h
MQAEILLTLKLQQKLFADPRRISLLKHIALSGSISQGAKDAGISYKSAWDAINEMNQLSEHILVERATGGKGGGGAVLTRYGQRLIQLYDLLAQIQQKAFDVLSDDDALPLNSLLAAISRFSLQTSARNQWFGTITARDHDDVQQHVDVLLADGKTRLKVAITAQSGARLGLDEGKEVLILLKAPWVGITQDEAVAQNADNQLPGIISHIERGAEQCEVLMALPDGQTLCATVPVNEATSLQQGQNVTAYFNADSVIIATLC [P0A9G8],total protein half-life in vivo,[1],5.338 ± 0.023 h
same,total protein half-life in vivo,[2],5.85 ± 0.37 h
same,total protein half-life in vivo,[3],6.82 ± 1.4 h
same,total protein half-life in vivo,[4],6.41 ± 0.61 h
same,total protein half-life in vivo,[5],5.84 ± 0.2 h
same,total protein half-life in vivo,[6],3.04 ± 0.29 h
same,total protein half-life in vivo,[7],6.38 ± 0.15 h
same,total protein half-life in vivo,[8],12.7 ± 0.41 h
same,total protein half-life in vivo,[9],5.703 ± 0.02 h
same,total protein half-life in vivo,[10],11.88 ± 0.075 h
same,total protein half-life in vivo,[11],6.2 ± 0.59 h
same,total protein half-life in vivo,[12],12.13 ± 0.038 h
MQALLLEQQDGKTLASVQTLDESRLPEGDVTVDVHWSSLNYKDALAITGKGKIIRNFPMIPGIDFAGTVRTSEDPRFHAGQEVLLTGWGVGENHWGGLAEQARVKGDWLVAMPQGLDARKAMIIGTAGFTAMLCVMALEDAGVRPQDGEIVVTGASGGVGSTAVALLHKLGYQVVAVSGRESTHEYLKSLGASRVLPRDEFAESRPLEKQVWAGAIDTVGDKVLAKVLAQMNYGGCVAACGLAGGFTLPTTVMPFILRNVRLQGVDSVMTPPERRAQAWQRLVADLPESFYTQAAKEISLSEAPNFAEAIINNQIQGRTLVKVN,total protein half-life in vivo,[1],5.18 ± 0.35 h
same,total protein half-life in vivo,[2],5.271 ± 0.034 h
same,total protein half-life in vivo,[3],5.7 ± 1.2 h
same,total protein half-life in vivo,[4],5.67 ± 0.37 h
same,total protein half-life in vivo,[5],4.6639 ± 0.0045 h
same,total protein half-life in vivo,[6],3.03 ± 0.091 h
same,total protein half-life in vivo,[8],10.63 ± 0.024 h
same,total protein half-life in vivo,[9],5.25 ± 0.21 h
same,total protein half-life in vivo,[10],9.06 ± 0.27 h
same,total protein half-life in vivo,[11],6.5 ± 0.39 h
same,total protein half-life in vivo,[12],13 ± 0.96 h
